Test results as given in patent US20240116985A1 (published 2024).
Starred links: 1 amine or outer side, 2 acyl side, 3 side chain; linkers in the order of their positions; H or OH if unused. Positions of bridges follow the written chain, without caps; N, C: chain ends. Non-standard residues stand in square brackets, D forms with d. Primed or numbered codes have the meaning given here. B5(16) = 2-amino-2-(pent-4-en-1-yl)hept-6-enoic acid = 2,2-bis(4-pentenyl)glycine (stitching residue), C=CCCCC(CCCC=C)(N[*:1])C(=O)[*:2]; B5(4) = 2,2-bis(4-pentenyl)glycine = 2-amino-2-(pent-4-en-1-yl)hept-6-enoic acid (stitching residue), C=CCCCC(CCCC=C)(N[*:1])C(=O)[*:2]; B5(5) = 2,2-bis(4-pentenyl)glycine, 2-amino-2-(pent-4-en-1-yl)hept-6-enoic acid (stitching residue), C=CCCCC(CCCC=C)(N[*:1])C(=O)[*:2]; PyrS″ = (S)-1-((allyloxy)carbonyl)-3-aminopyrrolidine-3-carboxylic acid (stapling residue), C=CCOC(=O)N1CC[C@@](N[*:1])(C(=O)[*:2])C1; B5(21) = 2-amino-2-(pent-4-en-1-yl)hept-6-enoic acid, bis(4-pentenyl)glycine (stitching residue), C=CCCCC(CCCC=C)(N[*:1])C(=O)[*:2]; RdN = (R)-4-(((allyloxy)carbonyl)(methyl)amino)-2-amino-2-methylbutanoic acid, C=CCOC(=O)N(C)CC[C@@](C)(N[*:1])C(=O)[*:2]; PyrS = (S)-1-((allyloxy)carbonyl)-3-aminopyrrolidine-3-carboxylic acid, C=CCOC(=O)N1CC[C@@](N[*:1])(C(=O)[*:2])C1; Trp(5-cPr) = 5-cyclopropyl-L-tryptophan (5CpW), O=C([C@H](Cc1c[nH]c2ccc(C3CC3)cc12)N[*:1])[*:2]; B5 = 2-amino-2-(pent-4-en-1-yl)hept-6-enoic acid, C=CCCCC(CCCC=C)(N[*:1])C(=O)[*:2]; Trp(5-CF3) = N[C@@H](Cc1c[nH]c2ccc(C(F)(F)F)cc12)C(=O)O; H2Trp = 2,3-dihydrotryptophan (indolin-3-yl alanine); Phe(3-CF3) = N[C@@H](Cc1cccc(C(F)(F)F)c1)C(=O)O; Phe(4-CF3) = N[C@@H](Cc1ccc(C(F)(F)F)cc1)C(=O)O; S7 = C[C@@](CCCCCC=[*:3])(N[*:1])C(=O)[*:2]; αAllylPro = C=CC[C@@]1(C(=O)O)CCCN1; R8 = C=CCCCCCC[C@@](C)(N)C(=O)O; S8 = C=CCCCCCC[C@](C)(N)C(=O)O; Nle = CCCC[C@H](N)C(=O)O; Aib = CC(C)(N)C(=O)O

T1: full-length beta-Catenin (Uniprot ID P35222) (Homo sapiens (Human), UniProt P35222 2-781)
T1 construct: the AlphaScreen assay uses a Histidine (Nickel Chelate) detection kit, so a His tag is likely there; also called B-Catenin; bCat
T1 sequence: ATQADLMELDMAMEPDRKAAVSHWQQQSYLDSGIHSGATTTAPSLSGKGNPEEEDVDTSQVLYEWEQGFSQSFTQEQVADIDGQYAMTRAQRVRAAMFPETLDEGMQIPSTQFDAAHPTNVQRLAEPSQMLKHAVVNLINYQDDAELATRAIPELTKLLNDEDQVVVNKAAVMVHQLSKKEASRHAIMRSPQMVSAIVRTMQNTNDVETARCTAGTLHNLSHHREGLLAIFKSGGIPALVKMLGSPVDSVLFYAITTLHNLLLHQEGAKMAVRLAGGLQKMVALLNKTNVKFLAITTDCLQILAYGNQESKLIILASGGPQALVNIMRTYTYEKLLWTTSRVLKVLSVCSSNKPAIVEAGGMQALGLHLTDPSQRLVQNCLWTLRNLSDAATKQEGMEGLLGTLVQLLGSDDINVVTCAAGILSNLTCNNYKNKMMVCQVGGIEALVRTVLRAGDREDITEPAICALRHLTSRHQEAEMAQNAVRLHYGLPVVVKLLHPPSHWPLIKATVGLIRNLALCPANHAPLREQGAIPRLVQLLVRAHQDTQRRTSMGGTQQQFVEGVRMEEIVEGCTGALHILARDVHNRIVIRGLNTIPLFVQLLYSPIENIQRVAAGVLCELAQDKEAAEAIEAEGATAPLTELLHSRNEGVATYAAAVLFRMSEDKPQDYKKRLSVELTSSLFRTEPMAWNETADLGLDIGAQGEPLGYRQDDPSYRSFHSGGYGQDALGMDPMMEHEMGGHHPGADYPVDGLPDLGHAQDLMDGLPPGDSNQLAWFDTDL

T2: full-length beta-Catenin (Uniprot ID P35222) (Homo sapiens (Human), UniProt P35222 2-781)
T2 construct: The AlphaScreen assay used a Histidine (Nickel Chelate) detection kit, so a His tag is likely, but no tag is described; also called B-Catenin; bCat
T2 sequence: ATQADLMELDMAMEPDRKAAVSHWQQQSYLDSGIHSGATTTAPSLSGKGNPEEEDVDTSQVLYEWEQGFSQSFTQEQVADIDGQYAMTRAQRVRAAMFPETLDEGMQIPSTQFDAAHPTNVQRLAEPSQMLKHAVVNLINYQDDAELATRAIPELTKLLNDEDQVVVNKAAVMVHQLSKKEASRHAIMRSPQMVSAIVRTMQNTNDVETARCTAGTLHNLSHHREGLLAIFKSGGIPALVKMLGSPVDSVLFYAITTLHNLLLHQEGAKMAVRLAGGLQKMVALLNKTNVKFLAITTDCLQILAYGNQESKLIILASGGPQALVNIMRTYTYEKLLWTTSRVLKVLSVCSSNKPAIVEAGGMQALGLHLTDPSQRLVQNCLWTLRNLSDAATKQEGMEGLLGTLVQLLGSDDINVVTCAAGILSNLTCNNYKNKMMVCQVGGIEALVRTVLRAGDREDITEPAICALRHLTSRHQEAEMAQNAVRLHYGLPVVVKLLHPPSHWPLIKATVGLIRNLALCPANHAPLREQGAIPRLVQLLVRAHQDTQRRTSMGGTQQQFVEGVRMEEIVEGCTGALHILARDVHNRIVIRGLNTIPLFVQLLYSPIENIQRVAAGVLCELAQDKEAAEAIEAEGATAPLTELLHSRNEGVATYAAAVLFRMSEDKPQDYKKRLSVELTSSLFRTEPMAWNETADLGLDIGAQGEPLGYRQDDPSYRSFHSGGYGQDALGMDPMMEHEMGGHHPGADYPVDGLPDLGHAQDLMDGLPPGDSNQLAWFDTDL


The binders below were run against T1, full-length beta-Catenin (Uniprot ID …) (assay: AlphaScreen competition; full-length beta-catenin with biotin-TCF4(10-53) probe as competitor).
Method: (§1) Equal volume of the titrated peptide was added to the plate and incubated for 15 minutes at 20° C. Then 4 uL of donor and 4 uL acceptor beads at 10 ug/mL were added to the plate, for a 16 uL reaction pool and protected from light for 60 minutes at 20° C. prior to read. Reads were performed on a CLARIOstar plate reader (BMG Labtech) in duplicate, and data were fitted to a 1:1 binding model with hill slope using an in-house script. All provided concentrations are final concentrations.

EC50	Binder
9.75 µM	Ac-FDA[R8]DDAAFS[PyrS″]FWQ-NH2 (staple 4-11; not fully specified; printed as Ac-Phe-Asp-Ala-R8-Asp-Asp-Ala-Ala-Phe-Ser-PyrS-Phe-Trp-Gln-NH2, stapled peptide) [I-163]
≥ 10 µM	Ac-[αAllylPro]DA[B5(4)]D[Nle]AAFV[S8]FWQ-NH2 (staple 1-4, 4-11; not fully specified; printed as Ac-PL3-Asp-Ala-B5-Asp-nLeu-Ala-Ala-Phe-Val-S8-Phe-Trp-Gln-NH2, stapled peptide) [I-138]
6.2 µM	Ac-[αAllylPro]DA[B5(16)]DEAAFV[S8]F[H2Trp]Q-NH2 (staple 1-4, 4-11, stapled peptide) [I-167]
4.18 µM	Ac-ADA[RdN]DEAAFQ[S7]FWH-NH2 (staple 4-11, stapled peptide composition) [I-156]
≥ 10 µM	Ac-FDA[R8]DDAAFV[PyrS″]EWQ-NH2 (staple 4-11; not fully specified; printed as Ac-Phe-Asp-Ala-R8-Asp-Asp-Ala-Ala-Phe-Val-PyrS-Glu-Trp-Gln-NH2, stapled peptide) [I-162]
4.67 µM	Ac-[αAllylPro]DA[B5]DEAAFV[S8]F[Trp(5-cPr)]Q-NH2 (staple 1-4, 4-11, stapled peptide) [I-170]
9.21 µM	Ac-[αAllylPro]DA[B5]DEAAFV[S8]F[Trp(5-CF3)]Q-NH2 (staple 1-4, 4-11, stapled peptide composition) [I-169]
≥ 10 µM	Ac-[αAllylPro]DA[B5(21)]D[Nle]AAFV[S8]FWQ-NH2 (staple 1-4, 4-11; not fully specified; printed as Ac-PL3-Asp-Ala-B5-Asp-nLeu-Ala-Ala-Phe-Val-S8-Phe-Trp-Gln-NH2, stapled peptide) [I-139]
4.06 µM	Ac-[Aib]DA[R8]DEAAFV[PyrS]FWQ-NH2 (staple 4-11; also: earlier-eluting staple isomer, stapled peptide) [I-157]

Each binder was assayed against T2, full-length beta-Catenin (Uniprot ID …) (assay: AlphaScreen competition: full-length beta-catenin + biotin-TCF4(10-53) probe, peptide titrated).
Method: as §1

EC50	Binder
2.83 µM	Ac-[αAllylPro]DA[B5(4)]DDAAFV[S8][Phe(3-CF3)]WQ-NH2 (staple 1-4, 4-11, Stapled peptide composition; also called Ac-PL3-Asp-Ala-B5-Asp-Asp-Ala-Ala-Phe-Val-S8-3F3MeF-Trp-Gln-NH2) [I-249]
2.83 µM	Ac-[αAllylPro]DA[B5(4)]DDAAFV[S8][Phe(3-CF3)]WQ-NH2 (staple 1-4, 4-11, Stapled peptide composition; also called Ac-PL3-Asp-Ala-B5-Asp-Asp-Ala-Ala-Phe-Val-S8-3F3MeF-Trp-Gln-NH2) [I-248]
3.47 µM	Ac-[αAllylPro]DA[B5(5)]DDAA[Phe(4-CF3)]V[S8]FWQ-NH2 (staple 1-4, 4-11; not fully specified; printed as Ac-PL3-Asp-Ala-B5-Asp-Asp-Ala-Ala-4F3MeF-Val-S8-Phe-Trp-Gln-NH2, Stapled peptide composition; also called Ac-PL3-Asp-Ala-B5-Asp-Asp-Ala-Ala-4F3MeF-Val-S8-Phe-Trp-Gln-NH2) [I-241]
4.91 µM	Ac-[αAllylPro]DA[B5(5)]DDAA[Phe(4-CF3)]V[S8]FWQ-NH2 (staple 1-4, 4-11; not fully specified; printed as Ac-PL3-Asp-Ala-B5-Asp-Asp-Ala-Ala-4F3MeF-Val-S8-Phe-Trp-Gln-NH2, Stapled peptide composition; also called Ac-PL3-Asp-Ala-B5-Asp-Asp-Ala-Ala-4F3MeF-Val-S8-Phe-Trp-Gln-NH2) [I-242]
3.69 µM	Ac-[αAllylPro]DA[B5(4)]DDAAFV[S8][Phe(4-CF3)]WQ-NH2 (staple 1-4, 4-11, Stapled peptide composition; also called Ac-PL3-Asp-Ala-B5-Asp-Asp-Ala-Ala-Phe-Val-S8-4F3MeF-Trp-Gln-NH2) [I-252]
3.47 µM	Ac-[αAllylPro]DA[B5(5)]DDAA[Phe(4-CF3)]V[S8]FWQ-NH2 (staple 1-4, 4-11; not fully specified; printed as Ac-PL3-Asp-Ala-B5-Asp-Asp-Ala-Ala-4F3MeF-Val-S8-Phe-Trp-Gln-NH2, Stapled peptide composition; also called Ac-PL3-Asp-Ala-B5-Asp-Asp-Ala-Ala-4F3MeF-Val-S8-Phe-Trp-Gln-NH2) [I-240]
3.69 µM	Ac-[αAllylPro]DA[B5(4)]DDAAFV[S8][Phe(4-CF3)]WQ-NH2 (staple 1-4, 4-11, Stapled peptide composition; also called Ac-PL3-Asp-Ala-B5-Asp-Asp-Ala-Ala-Phe-Val-S8-4F3MeF-Trp-Gln-NH2) [I-253]
4.91 µM	Ac-[αAllylPro]DA[B5(5)]DDAA[Phe(4-CF3)]V[S8]FWQ-NH2 (staple 1-4, 4-11; not fully specified; printed as Ac-PL3-Asp-Ala-B5-Asp-Asp-Ala-Ala-4F3MeF-Val-S8-Phe-Trp-Gln-NH2, Stapled peptide composition; also called Ac-PL3-Asp-Ala-B5-Asp-Asp-Ala-Ala-4F3MeF-Val-S8-Phe-Trp-Gln-NH2) [I-243]
